We go through one molecule from paper PMC7843029 (Cell, 2021).

The assay deals with T1, RBD mouse Fc-tagged antigen (Sino Biological, Cat. No. 40592-V05H) (SARS-CoV-2, UniProt P0DTC2).
T1 construct: source: bought: Sino Biological
Nature of the assay: ELISA. The settings on record: both partners purified. On the technique in general: In an ELISA, binding on a coated surface is turned into a signal by an enzyme label.

B1: S304 IgG (antibody, V domains shown)
VH: EVQLVESGGGLVQPGGSLRLSCAASGFTFSSYDMHWVRQTTGKGLEWVSTIGTAGDTYYPDSVKGRFTISREDAKNSLYLQMNSLRAGDTAVYYCARGDSSGYYYYFDYWGQGTLLTVSS
VL: DIQMTQSPSSLSAAVGDRVTITCRASQSIGSYLNWYQQKPGKAPKLLIYAASSLQSGVPSRFSGSGSGTDFTLTISSLQPEDFAIYYCQQSYVSPTYTFGPGTKVDIK
notes: copies: 2 + 2
For B1, the binding result is listed as “binds”.
